Experimental findings from patent publication US20250377350A1 are described below.

This test concerns the target NY-ESO-1 157-165 peptide … presented on HLA-A*0201 (human). Description: cell-based or functional assay.

Substance “TCR1G4 (specific for the NY-ESO-1 157-165 … antigen), displayed on TnT cells” displayed a mRuby2 (STAT5-mRuby2 reporter) expression in peptide-pulsed ACDC-HLA cells after co-culture with TnT-TCR1G4 cells of 29% and a mRuby2+ cells of the monoclonal ACDC-HLA (A*0201) line (Clone 3, …-pulsed) after co-culture with TnT-TCR1G4 cells of 46.7%.
